Results as given in paper PMC3501574.

Biological target: Biotinylated IL-2Rβ (human) (UniProt P14784)
Experiment: SPR

Row | Substance | Kd [nM]
1 | IL-15 (1–114) (ligand) | 438
2 | IL-15—IL-15Rα complex (IL-15 co-expressed with IL-15Rα (1–64)) | 3
